These results are taken from the supplement of paper PMC9170038.

The subject of this series is MS2 coat protein. Kind of series: apparent KD of MS2 coat protein; designed switch direction (-1 OFF switch, 1 ON switch): -1; higher = weaker reporter binding. The method in brief: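 The reported apparent KD is a per-design median over clusters, from curve fits of normalised cluster fluorescence. Protein titrations used SNAP-549-labelled MS2 coat protein, doubled from 0.7 or 1.5 nM to 3 µM, in Tris-HCl pH 7.5 buffer with KCl, MgCl2, BSA, DTT, tRNA and Tween-20, with no input, 200 uM small-molecule ligand, or an oligonucleotide input. The RNA switches were transcribed on Illumina chips by stalled E. coli RNA polymerase.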

Setting [1] is: Eterna round: R95, input ligand: FMN 200 uM.
The mark [2] stands for this setting: Eterna round: R95, input ligand: microRNA oligo, concentration not stated.
The mark [3] stands for this setting: Eterna round: R95, input ligand: none.
[4] abbreviates: input ligand: microRNA oligo, concentration not stated.

For the sequence “CAGUACUGAGGAUAUACAUGAGGAUCACCCAUGUGUUCCGGCUAGGAAACUAGCAAAAGUAGAAGGCAGUACUG [salish99_ex3_r3_079] (puzzle: Exclusion 3)”, the “apparent KD of MS2 coat protein” value stood at 368 nM under setting [1], 30.8 nM under setting [2] and 28.5 nM under setting [3].
With “CAGUACUGAGGAUAUACAUGAGGAUCACCCAUGUGUUCCGGCUAGGAAACUAGCAAAGGUAGAAGGCAGUACUG [Salish 065 m11] (Eterna round: R97, puzzle: Exclusion 3)”, the “apparent KD of MS2 coat protein” value turned out to be 823 nM (input ligand: FMN 200 uM) and 43.7 nM (input ligand: none).
On the same counts, the results for “CAGUACUGAGGAUAUACAUGAGGAUCACCCAUGUUUUCCAGCUAGGAAACUAGCAAGUGUAGAAGGCAGUACUG [Salish 065 m6] (Eterna round: R97, puzzle: Exclusion 3)” are 342 nM and 25.6 nM.
Take “CAUACUAAAGUCAGGAUAUGCGGUCGAAUACGGGCGUAGAAGGGACAUGAGGAUCACCCAUGUAGAUAGUAAAG [EX-4 Malc #19] (puzzle: Brourd's mod of Exclusion 4)”: the “apparent KD of MS2 coat protein” value under setting [1] is 15.3 nM, the “apparent KD of MS2 coat protein” value under setting [2] turned out to be 13.6 nM and the “apparent KD of MS2 coat protein” value under setting [3] came out at 15.7 nM.
With “CAUAUGGGAGGAUAUGCAUAGAUAAAGAAACAUGUUCAACCACAUGAGGAUCACCCAUGUAGAAGGCCCAUAUG [Mat - Same state - Mayanna Mod - D102] (Eterna round: R96, puzzle: Exclusion 2)”, the “apparent KD of MS2 coat protein” value is 266 nM (input ligand: FMN 200 uM), 22.7 nM under setting [4] and 32.8 nM (input ligand: none).
For “CAUCCACAUGAGGAUCACCCAUGUCAGGAUAUCGCGCGCGCGUUUUCGGUCUUUCGCGCGAGAAGGGACGACUG (puzzle: Exclusion 1)”, the “apparent KD of MS2 coat protein” value under setting [2] worked out at 13.3 nM.
For the sequence “CAUGAUCUUCGGAAAAUGUACAUGAGGAUCACCCAUGUGACGAGUUACAUGAAAAACAAGCUUUUUGCUCGUCUUAU [Sensor v3 - Turn-off variant 1 - 10] (puzzle: Sensor v3, turn-off variant 1)”, the “apparent KD of MS2 coat protein” value is, setting by setting: under setting [1], 411 nM; under setting [2], 288 nM; under setting [3], 623 nM.
Take “CAUGAUCUUCGGAUCAUGUACAUGAGGAUCACCCAUGUUACGAGUUGAUCCUCAUACAAGCUUUUUGCUCGUCUUAU [Sensor v3 - Turn-off variant 1 - 26] (puzzle: Sensor v3, turn-off variant 1)”: the “apparent KD of MS2 coat protein” value is 22.2 nM under setting [1], 14.8 nM under setting [2] and 20.8 nM under setting [3].
Regarding “CAUGUGUUAGGAUAUGCACAGAUCUCCGAAAGGAGAUCUGUGCAGAAGGAACAUGAGGAUCACCCAUGUUGAUG [Mod of Brourd 16 - Jieux - Exclusion 4] (Eterna round: R97, puzzle: Exclusion 4)”, the “apparent KD of MS2 coat protein” value (input ligand: FMN 200 uM) was 136 nM and the “apparent KD of MS2 coat protein” value (input ligand: none) is 37.3 nM.
As for “CAUUAUUAUCGAGGAUAUCCUAUUGUAAUACUGGGAGAAGGCGGACUCAACAUGAGGAUCACCCAUGUAAGACGGGUACUAGAU [Ex NG1 #22] (Eterna round: R96, puzzle: Exclusion NG 1)”, the “apparent KD of MS2 coat protein” value amounted to 228 nM (input ligand: FMN 200 uM), 139 nM under setting [4] and 163 nM (input ligand: none).
On the same counts, the results for “CAUUAUUAUCGAGGAUAUCCUAUUGUAAUUCUGGGAGAAGGCGGACUCAACAUGAGGAUCACCCAUGUAAGACGGGUACUAGAU [Ex NG1 #21] (Eterna round: R96, puzzle: Exclusion NG 1)” are 69.5 nM, 61 nM and 92 nM.
For “CAUUCCUAGCGAGGAUAUCAGUAAAAGGGAAGCUGAGAAGGCGCAAACAUGAGGAUCACCCAUGUCACACGCGGGUAGUUUUCC [Uslazaxe] (Eterna round: R96, puzzle: Exclusion NG 1)” the same measures were 16.2 nM, 10.8 nM and 14.3 nM.
In the case of “CAUUGUUACGGAGGAUAUCGUAUUGAGAUACUAUGAGAAGGCCGAAUAAACAUGAGGAUCACCCAUGUGAGACGGAUGCUUGUG [Ex NG1 #35] (Eterna round: R96, puzzle: Exclusion NG 1)”, the “apparent KD of MS2 coat protein” value (input ligand: FMN 200 uM) is 33.1 nM, the “apparent KD of MS2 coat protein” value under setting [4] was 14.9 nM and the “apparent KD of MS2 coat protein” value (input ligand: none) worked out at 18.9 nM.
In the case of “CAUUUCAGUCGGAGAUCCAACAUGAGGAUCACCCAUGUCUCUAAAGCUUUUUGCUCGUCUUAUCCUCCUUUGUUCAC [JR_STOV1_Sub098] (Eterna round: R97, puzzle: Sensor, turn-off variant 1)”, the “apparent KD of MS2 coat protein” value runs as follows: (input ligand: FMN 200 uM) 458 nM; (input ligand: none) 299 nM.
As to “CCAACCAGAGGAUAUGCGCAUAGAUCAGACUUUGUUUCUUAACAUGAGGAUCACCCAUGUAGAAGGCUGUAACC [Ex2 #76] (Eterna round: R97, puzzle: Exclusion 2)”, the “apparent KD of MS2 coat protein” value is, setting by setting: (input ligand: FMN 200 uM) 21.6 nM; (input ligand: none) 20 nM.
On to “CCAAGAAUAGGAUAUACACCAUGUCAGCUUAUAUACAACGAACAUGAGGAUCACCCAUGUAGAAGGGUUCUCUC [Exclusion-2-#1] (Eterna round: R97, puzzle: Exclusion 2)”, for which the “apparent KD of MS2 coat protein” value by setting is: (input ligand: FMN 200 uM) 430 nM; (input ligand: none) 479 nM.
For “CCAAGCUUAUUCAUUAACAACAUGAGGAUCACCCAUGUAUAGGCAAUUAUGUCUGGGCUCUUUAGUGCUCGUCUUAU [Sensor-V1 #24] (Eterna round: R97, puzzle: Sensor, turn-off variant 1)” the same measures were 18 nM and 19.8 nM.
Regarding “CCAAGCUUAUUCAUUAACCACAUGAGGAUCACCCAUGUAUAGGCAAUUAUGACUGGGCUCUGUGGUGCUCGUCUUCU [mod-malcom] (Eterna round: R97, puzzle: Sensor, turn-off variant 1)”, the “apparent KD of MS2 coat protein” value came out at 59.7 nM (input ligand: FMN 200 uM) and 60.3 nM (input ligand: none).
Take “CCAGCGUAUGUGAGGAUAUGCUGGUCCUUGGAUCAGCAGAAGGCACAUGAGGAUCACCCAUGUGGAAACGUUGG [JL bmx4 3.41] (puzzle: Brourd's mod of Exclusion 4)”: the “apparent KD of MS2 coat protein” value under setting [2] was found to be 16.4 nM.
For “CCAGCGUAUGUGAGGAUAUGCUGGUCCUUGGAUCAGCAGAAGGCACAUGAGGAUCACCCAUGUGGAAACGUUGG [Mod of JL 1 - Jieux - Brourd's mod of Exclusion 4] (Eterna round: R97, puzzle: Brourd's mod of Exclusion 4)”, the “apparent KD of MS2 coat protein” value (input ligand: FMN 200 uM) worked out at 95.4 nM and the “apparent KD of MS2 coat protein” value (input ligand: none) is 24.3 nM.
Take “CCAUAUAACUGAGGAUAUAAUCACCACUAACAUUUAGAAGGCAGACAUGAGGAUCACCCAUGUGAUUUCUCAAUAUUAUACAUC [Prohibition 77 - Jieux - Exclusion NG 1] (Eterna round: R96, puzzle: Exclusion NG 1)”: the “apparent KD of MS2 coat protein” value turned out to be 387 nM (input ligand: FMN 200 uM), 544 nM under setting [4] and 1140 nM (input ligand: none).
As to “CCAUCACAUGAGGAUCACCCAUGUUAGGAUAUCAUUAGCCUCGGAGCUAUAGCGAGGUUGAGAAGGGACAUGUC [Eternabot (L1) Solution 87] (Eterna round: R97, puzzle: Exclusion 1)”, the “apparent KD of MS2 coat protein” value reads like this: (input ligand: FMN 200 uM) 19.9 nM; (input ligand: none) 22.7 nM.
On the same counts, the results for “CCAUGAUAAGGAUAUUGAAGGUUCGACAUGAGGAUCACCCAUGUUAUGUUGGAAAAGGGACAAGAAGGUAUUAAUU [salish99_ex5_r4_221] (Eterna round: R97, puzzle: Exclusion 5)” are 48.2 nM and 45.8 nM.
Turning to “CCAUGUUAGCAGGAUAUGCUAUUAAUCUUUUAUGCAGAAGGGCUUACAUGAGGAUCACCCAUGUAUUAAGUCAA [JR_E6_Sub077] (puzzle: Exclusion 6)”, the “apparent KD of MS2 coat protein” value under setting [2] came to 13.2 nM.
With “CCAUUCAGAGGAUAUGCGCAUAAAUAAGACUUUUUUUUUUAACAUGAGGAUCACCCAUGUAGAAGGCUGUAACC [Ex2 #46] (Eterna round: R97, puzzle: Exclusion 2)”, the “apparent KD of MS2 coat protein” value was found to be 24.6 nM (input ligand: FMN 200 uM) and 24.8 nM (input ligand: none).
On the same counts, the results for “CCCACAAGCUUUUUGCUCGACAUGAGGAUCACCCAUGUAAAAUGGGUAAAUUUAAAUUGAAACAAUUUAAAUUUGGG [-20.1, -44.2 kcal, A 35%] (Eterna round: R97, puzzle: Sensor, turn-off variant 1)” are 262 nM and 222 nM.
Regarding “CCCAGGGCAGGAUAUAGAGGGUGAAACAUGAGGAUCACCCAUGUGACCUCGGAACAGCUGCUAGAAGGGCCAAAUU [Eszaraxe] (puzzle: Exclusion 5)”, the “apparent KD of MS2 coat protein” value is, setting by setting: under setting [1], 19.2 nM; under setting [2], 15.3 nM; under setting [3], 16.3 nM.
For the sequence “CCCAGUUAUUGAGGAUAUCGUACAUGAGGAUCACCCAUGUAAUAAAUGAGGAUUUCGGGUGUCUACGAGAAGGCAAGGAUAGGC [Ostracism 21 - Jieux - Exclusion NG 2] (Eterna round: R96, puzzle: Exclusion NG 2)”, the “apparent KD of MS2 coat protein” value (input ligand: FMN 200 uM) was 61.3 nM, the “apparent KD of MS2 coat protein” value under setting [4] was determined as 37.4 nM and the “apparent KD of MS2 coat protein” value (input ligand: none) was found to be 49.6 nM.
For the sequence “CCCAUGUUAGGAUAUAUGGAAGGGCAGACGGGCGCCCUAAGGUAGAAGGAACAUGAGGAUCACCCAUGUAAUAA [Zausteesre] (Eterna round: R97, puzzle: Exclusion 4)”, the “apparent KD of MS2 coat protein” value reads like this: (input ligand: FMN 200 uM) 113 nM; (input ligand: none) 67.3 nM.
“CCCGACAUGUCUUCGUAAUACAUGAGGAUCACCCAUGUCACGUAGGAUAUCCAGUCGGUAAGAGAGGAGAAGGAUGUAAGAAAU [Vedite] (Eterna round: R96, puzzle: Exclusion NG 3)”: the “apparent KD of MS2 coat protein” value runs as follows: (input ligand: FMN 200 uM) 15.5 nM; under setting [4], 9.14 nM; (input ligand: none) 15.5 nM.
